According to paper PMC7073074 (2020):

Legend:
rabbit muscle F-actin [1] = target: T1, rabbit muscle F-actin (Oryctolagus cuniculus (Rabbit), UniProt P68135); test: F-actin co-sedimentation, Coomassie SDS-PAGE
rabbit muscle F-actin [2] = target: T1, rabbit muscle F-actin; test: F-actin co-sedimentation, Coomassie SDS-PAGE (apparent Kd given only as 8.9 µg, CI 5-20 µg); low ionic strength: co-pellets at 50 mM NaCl but not at 100 or 150 mM NaCl; polymerised (F-)actin

B1: FLAG-tagged coronin A lacking the coiled coil (protein)
chain: MSKVVRSSKYRHVFAAQPKKEECYQNLKVTKSAWDSNYVAANTRYFGVIWDAAGGGSFAVIPHEASGKTTSVPLFNGHKSAVLDIAFHPFNENLVGSVSEDCNICIWGIPEGGLTDSISTPLQTLSGHKRKVGTISFNPVADNVAVTSSGDFLVKTWDVEQGKNLTTVEGHSDMITSCEWNHNGSQIVTTCKDKKARVFDPRTNSIVNEVVCHQGVKNSRAIFAKDKVITVGFSKTSERELHIYDPRAFTTPLSAQVVDSASGLLMPFYDADNSILYLAGKGDGNIRYYELVDESPYIHFLSEFKSATPQRGLCFLPKRCLNTSECEIARGLKVTPFTVEPISFRVPRKSDIFQDDIYPDTYAGEPSLTAEQWVSGTNAEPKTVSLAGGFVKKASAVEFKPVVQVQEGPKN
B1: no binding (rabbit muscle F-actin [1]).

B2: FLAG-tagged coronin A (protein)
chain: MSKVVRSSKYRHVFAAQPKKEECYQNLKVTKSAWDSNYVAANTRYFGVIWDAAGGGSFAVIPHEASGKTTSVPLFNGHKSAVLDIAFHPFNENLVGSVSEDCNICIWGIPEGGLTDSISTPLQTLSGHKRKVGTISFNPVADNVAVTSSGDFLVKTWDVEQGKNLTTVEGHSDMITSCEWNHNGSQIVTTCKDKKARVFDPRTNSIVNEVVCHQGVKNSRAIFAKDKVITVGFSKTSERELHIYDPRAFTTPLSAQVVDSASGLLMPFYDADNSILYLAGKGDGNIRYYELVDESPYIHFLSEFKSATPQRGLCFLPKRCLNTSECEIARGLKVTPFTVEPISFRVPRKSDIFQDDIYPDTYAGEPSLTAEQWVSGTNAEPKTVSLAGGFVKKASAVEFKPVVQVQEGPKNEKELREEYEKLKIRVAYLESEIVKKDAKIKELTN
B2: binds (rabbit muscle F-actin [2]).
